Measured values published in US11998609B2, “Self-assembling antiviral prodrugs” (priority 2021, dated 2024).
pIC50: −log10 of the molar value. Residues, ends and D or L forms follow the SMILES beside them. *: point of attachment. X1 = C[C@H](Cn1cnc2c(N)ncnc21)OCP(=O)(O)OCCS*; Palmitoyl = CCCCCCCCCCCCCCCC(=O)*

Tests used:
[1] = In vitro prodrug release from TFV-PA hydrogels; type: physicochemical; conditions: day 30, in vitro
Experimental: To study gel release, 5 mM and 10 mM solutions of TFV-PA2 and TFV-PA3 were prepared using deionized water and allowed to age at RT for 48 hours. 45 μL of each solution was aliquoted into three 0.5 mL microcentrifuge tubes and 5 μL of 10× PBS was added to each vial to form a hydrogel with a final concentration of 1× PBS. Gels were allowed to set for 5-10 minutes before 60 μL of 1× PBS was added to the surface as the release media. The vials were then allowed to age at 37° C. Every 2 days, 50 μL of gel release supernatant was collected and replaced with an equal volume of fresh 1× PBS. Samples were frozen and stored at −20° C. for future analysis by RP-HPLC. On select days, 5 μL of release supernatant was collected 24 hours after supernatant exchange and used to prepare a negatively stained transmission electron microscope grid for analysis with the Talos transmission electron microscope. The grid was prepared as described above, except the sample was blotted with 5 μL deionized water (wicked immediately) after the sample was wicked away to remove excess salts from the PBS. Once the release experiment was complete, samples were thawed and 1-2 mg of TCEP was added to 25 μL sample solution and an equal volume of acetonitrile, then vortexed and sonicated at 37° C. for 10 minutes to ensure complete cleavage of the TFV moiety from the TFV-PAs. […]

[2] = Stability of TFV-PAs and redox triggered release of free TFV (with/without DTT); type: in vitro ADME; conditions: 37° C.; for prodrug stability without DTT: 100 μM in 1× PBS, absence of DTT; for TFV released: 100 μM, 10 mM DTT, 1× PBS
Experimental: Stability of the TFV-PAs and redox triggered release of free TFV was assessed by aging TFV-PA solutions in the presence and absence of 10 mM dithiothreitol (DTT). 200 µM solutions of TFV-PA2 and TFV-PA3 solutions were prepared using deionized H2O and allowed to age at RT for 24 hours. A 20 mM solution of DTT was prepared by diluting a stock 1 M DTT solution with 2× phosphate buffered solution (PBS). 500 μL of 2× PBS was added to an equal volume of each TFV-PA solution to give the DTT negative samples with a final TFV-PA concentration of 100 μM in 1× PBS. 500 μL of 20 mM DTT solution was added to an equal volume of each TFV-PA solution to give the DTT positive samples with a final TFV-PA concentration of 100 μM and 10 mM DTT in 1× PBS. Each experimental condition was prepared in triplicate. Solutions were allowed to age at 37° C. and 50 μL samples were collected at predetermined time points (0, 1, 2, 4, 8, 12, 24, 48, and 72 h), flash frozen in liquid nitrogen, and then stored in a −20° C. freezer. 2 μL of hydrochloric acid was added to the DTT positive samples upon collection to quench the reaction. Samples were thawed and immediately analyzed using the Agilent Infinity II RP-HPLC. The relative proportions of remaining TFV-PA were determined using the ratio of the AUC of the TFV-PA peak in the 260 nm chromatograph to that of the 0 hour samples. For select samples, 1 μL of solution was diluted in 900 μL MeOH and 100 μL 0.1% aq. formic acid and subjected to ESI MS to identify the molecules in the sample.

HBV = type: cell-based, hepatitis B virus; conditions: HepAD38 cells, qPCR of cellular supernatant; FIG. 5 legend; read-out: IC50, reduction of HBV production
Experimental: Anti-HBV efficacy was evaluated on HepAD38 cells, using an adaptation of a procedure described in Ladner, Antimicrob. Agents Chemother. 41: 1715-20, 1997, incorporated herein by reference. HepAD38 cells were plated on collagen coated 96-well flat-bottomed plates at a density of 6×10^4 cells/well and grown for 3 days in the presence of 200 μL of Ham's F-12K (Kaighn's) Medium supplemented with 10% fetal bovine serum (FBS), 1% of an antibiotic solution (penicillin and streptomycin), and 0.3 mg/mL tetracycline at 37° C. in 5% carbon dioxide. On day zero the cells were washed with PBS and treated with tetracycline-free F-12K medium containing TFV, TFV-PA2, or TFV-PA3 (180 μL of medium supplemented with 20 μL of 10× concentration therapeutic solution to give 200 μL of medium at the final therapeutic concentration). Each therapeutic was screened at a minimum of five concentrations in quadruplicate. Water treated cells (180 μL of medium supplemented with 20 μL of H2O) were used as the negative control. On day three the medium was removed and replaced with 200 μL of fresh tetracycline-free medium containing the test compound at the appropriate concentration. […] HBV DNA was quantified by qPCR, using Integrated DNA Technologies PrimeTime Gene Expression Master Mix (Integrated DNA Technologies, Coralville, IA) and HBV TaqMan primer/probe (20×, Assay ID Vi03453405_s1, ThermoFisher Scientific, Pittsburgh, PA). A serial dilution of gBlocks Gene Fragments (Integrated DNA Technologies, Coralville, IA) of known HBV copy number was used as the standard for the absolute quantification of DNA copy number from cycle threshold values. […] Percent HBV production for each therapeutic concentration was determined based on average number of copies of HBV DNA produced by water treated cells and averaged between the three biological repeats of the assay before being plotted against concentration. […]

[3] = In vivo pharmacokinetics and biodistribution
Experimental: Samples were dried under a N2 stream, reconstituted in 100 μl of 80% v/v LC-MS grade MeOH/H2O. 10 μl of the sample solution was injected into Waters Acquity/Xevo-G2 UPLC/MS system (Milford, MA) for analysis.
For tissue analysis, an optimized amount of tissue sample was processed using a tissue homogenizer in 5 volumes of 90% v/v LC/MS grade MeCN/H2O. 100 μL Tissue homogenate was mixed with 90 μL of 90% v/v LC/MS grade MeCN/H2O, 10 μL of LC-MS-grade water, and 10 μL 500 ng/ml Emtricitabine solution (as IS). After extraction, 10 μl of the sample solution was injected into Waters Acquity/Xevo-G2 UPLC/MS system (Milford, MA) for analysis.

[4] = cited from earlier work

SMILES | initial prodrugs remaining in hydrogel [1] | prodrug stability without DTT [2] | TFV released ([2]; after 4 hours) | TFV released ([2]; by 24 hours) | pIC50 (HBV) | TFV released ([2]; after 1 hour) | drug levels after free drug administration ([3]; after three days, mice) | MRT ([3]; male, Balb/cJ, mouse, in vivo, sc, 75 mg/kg) [h] | log P [4]
CCCCCCCCCCCCCCCC(=O)N[C@H](C(=O)N[C@H](C(=O)N[C@H](C(=O)N[C@@H](CSSCCOP(=O)(O)CO[C@H](C)Cn1cnc2c(N)ncnc21)C(=O)N[C@@H](CCC(=O)O)C(=O)O)C(C)C)C(C)C)C(C)C [TFV-PA3] (Palmitoyl-VVVC(X1)E-OH) | more than 80% | stable at 37 °C and in 1× PBS for 3 days | more than 70% | all TFV released | 6.60 | – | – | – | –
CCCCCCCCCCCCCCCC(=O)N[C@H](C(=O)N[C@H](C(=O)N[C@@H](CSSCCOP(=O)(O)CO[C@H](C)Cn1cnc2c(N)ncnc21)C(=O)N[C@@H](CCC(=O)O)C(=O)O)C(C)C)C(C)C [TFV-PA2] (Palmitoyl-VVC(X1)E-OH) | – | stable at 37 °C and in 1× PBS for 3 days | – | all TFV released | 5.82 | more than 90% | – | – | –
Nc1ccn([C@@H]2CS[C@H](CO)O2)c(=O)n1 [3TC, 2′,3′-Dideoxy-3′-Thiacytidine] | – | – | – | – | – | – | below detection | 50.4 | –
C[C@H](Cn1cnc2c(N)ncnc21)OCP(=O)(O)O [TFV, tenofovir, reference compound] | – | – | – | – | 5.96 | – | – | – | −2.5
